B1: PCDHGA10 (parent)
chain: FGIEIEVTDINDNAPKFQAENLDV
B2: STEAP1 (parent)
chain: WMLTRKQFGLLSFFFAVLHAIYSL

Variants of: B1
Assay: protein stability index of a GFP-peptide fusion (GPS, HEK-293T) (PSI 1-6); higher = more stable
Conditions: c terminus: a fixed tail appended
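Further: lentivirally expressed fusions sorted by FACS into six bins by GFP to DsRed ratio, PSI derived from sequencing read proportions per bin multiplied by bin number.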

Protein stability index, by site and new letter:
Q18: L 2.26 | E 3.33
D23: F 1.55
E6: N 3.02
F1: D 4.71
N11: Q 2.52
E4: Y 1.73
T8: G 3.27 | D 3.79
A14: P 2.69 | R 2.83
P15: W 2.05
V24: F 2.64
F17: I 3.37
I5: D 4.58
N21: Y 1.73

Variants of: B2
Assay: as above
Conditions: c terminus: a fixed tail appended

Protein stability index of substitutions, site by site:
G9: Q 2.07 | R 2.97 | N 1.46 | Y 2.75 | T 1.25 | I 1.83 | W 2.24 | F 1.94 | V 1.83 | E 1.99 | C 1.89 | S 1.98 | L 1.89 | M 2.12 | K 2.04 | H 2 | A 2.27 | D 3.04
L18: H 2.03 | C 2.75 | V 1.66 | Q 2.82 | I 2 | D 3.5 | E 3.98 | K 3.01 | G 2.66 | W 1.74 | A 2.43 | Y 2.13 | T 1.92 | F 1.63 | R 1.8 | S 1.86 | P 3.09
Q7: W 1.86 | V 3.1 | Y 2.28
A16: M 1.13 | F 1.93 | Y 1.54 | P 1.59 | T 2.63 | H 1.76 | G 1.77 | N 1.88 | K 1.46 | E 1.67 | W 2.19 | I 1.77 | C 1.69 | L 1.64 | S 1.45 | V 1.51 | D 2.07 | Q 1.52 | R 1.93
I21: V 2.18 | T 1.05 | C 2.21 | L 3.18 | S 2.16 | R 3.01 | E 4.75 | P 3.02 | K 2.41 | M 1.66 | Q 1.61 | W 1.63 | Y 1.95 | A 3.66 | H 3.26 | F 2.26 | N 2.81 | D 3.17 | G 2.17
H19: N 1.89 | R 1.74 | V 3.14 | Y 3.25 | Q 2.22 | W 3.67 | G 2.77 | P 3.26 | A 3.76 | M 3.02 | F 2.76 | T 2.67 | S 2.34 | D 1.82 | L 2.59 | I 2.58 | E 1.65 | C 2.94 | K 2.16
L24: A 1.91 | W 2.13 | P 2.08 | R 1.84 | T 2.26 | K 3.44 | S 2.14 | M 1.97 | C 2 | Y 2 | D 2.7 | G 2.74 | Q 1.94 | E 1.4 | V 2.27 | N 1.98 | H 1.83 | F 1.46 | I 1.86
L10: I 2.05 | N 1.99 | T 1.96 | P 1.33 | M 1.83 | V 1.52 | F 1.85 | G 2 | H 2.09 | D 2.52 | S 1.53 | R 4.36 | E 2.17 | W 1.35 | C 1.98 | Q 3.24 | A 1.76 | Y 1.66 | K 1.73
F8: T 3.12 | D 2.31 | S 1.84 | K 1.67 | N 1.73 | W 1.88 | P 1.64 | H 2.16 | R 2.31 | E 1.64 | M 1.94 | A 1.74 | G 1.18 | Q 2.11 | I 1.5 | Y 1.84 | L 2.04 | C 1.67 | V 2.14
F14: V 1.69 | M 1.41 | I 2.96 | K 2.49 | G 2.11 | C 2.35 | D 3.4 | N 2.85 | A 3.09 | R 1.51 | S 2.82 | T 2.46 | Q 3.11 | Y 1.47 | W 1.82 | P 2.09 | E 3.11 | H 2 | L 1.73
Y22: V 2.48 | N 1.34 | P 2.29 | G 2.2 | W 1.99 | E 2.93 | S 1.63 | K 2.29 | L 1.79 | M 2.45 | R 2.46 | T 2.03 | H 2.1 | C 2.43 | D 2.97 | Q 2.21 | A 1.58 | I 1.1 | F 1.56
V17: S 2.07 | C 2.6 | M 2.85 | G 2.58 | K 2.53 | D 5.3 | A 2.25 | P 2.19 | W 2.33 | N 4.05 | H 3.31 | E 2.34 | L 1.7 | Y 2.99 | Q 3.15 | I 1.73 | T 2.33 | F 3.24
L11: A 2.01 | D 2.23 | I 2.31 | E 2.43 | S 1.62 | V 2.15 | G 1.96 | W 1.72 | M 2.52 | Q 1.67 | R 1.51 | K 1.34 | Y 2.31 | P 1.57 | C 1.48 | N 3.38 | F 1.72 | T 1.95
F13: K 2.38 | L 2.65 | A 3.27 | T 2.69 | H 3.2 | G 2.25 | C 2.02 | I 2.11 | V 3.35 | P 1.95 | Y 1.95 | R 2.44 | W 1.67 | M 2.13 | E 4.58 | Q 1.78
F15: S 1.74 | H 1.73 | M 1.62 | K 1.58 | A 1.82 | Q 2.62 | P 1.78 | N 1.4 | G 1.58 | R 1.7 | L 2 | D 2.78 | E 2.7 | I 1.94 | C 1.77 | V 1.51 | T 1.32 | Y 1.71 | W 1.55
S23: T 1.55 | W 2 | D 1.95 | E 1.49 | F 1.79 | R 2.43 | I 1.92 | H 1.71 | L 1.27 | C 1.75 | P 1.89 | Y 2.37 | K 2.01 | G 1.48 | V 1.94 | A 1.36 | Q 1.39 | M 2.3 | N 2.21
A20: P 2.51 | H 1.62 | L 2.46 | Q 2.69 | M 1.66 | F 2.8 | T 1.36 | W 1.79 | G 2.13 | K 1.78 | Y 2.1 | V 1.08 | R 1.73 | C 2.18 | S 2.41 | N 2.02 | D 2.62 | E 2.56 | I 1.88
S12: H 1.94 | G 1.75 | Q 2.38 | W 2.76 | E 2.95 | T 1.84 | K 1.86 | A 2.05 | C 1.88 | F 1.9 | L 1.66 | N 2.05 | M 1.67 | Y 1.25 | D 1.28 | V 1.67 | R 2.57 | P 3.09 | I 1.61
